These results are taken from paper PMC5551684.

Where two headings read alike, the source gives them in different places.

In data set [1] the target is T1, HSV-1 DNA polymerase catalytic subunit UL30 (exonuclease proficient) (Herpes simplex virus 1, UniProt P04293 1-1235). Put plainly: competition.
Data set [2] deals with T1, HSV-1 DNA polymerase catalytic subunit …. Nature of the data set: competition. The source holds these as a separate data set.

T1 sequence (P04293 whole entry): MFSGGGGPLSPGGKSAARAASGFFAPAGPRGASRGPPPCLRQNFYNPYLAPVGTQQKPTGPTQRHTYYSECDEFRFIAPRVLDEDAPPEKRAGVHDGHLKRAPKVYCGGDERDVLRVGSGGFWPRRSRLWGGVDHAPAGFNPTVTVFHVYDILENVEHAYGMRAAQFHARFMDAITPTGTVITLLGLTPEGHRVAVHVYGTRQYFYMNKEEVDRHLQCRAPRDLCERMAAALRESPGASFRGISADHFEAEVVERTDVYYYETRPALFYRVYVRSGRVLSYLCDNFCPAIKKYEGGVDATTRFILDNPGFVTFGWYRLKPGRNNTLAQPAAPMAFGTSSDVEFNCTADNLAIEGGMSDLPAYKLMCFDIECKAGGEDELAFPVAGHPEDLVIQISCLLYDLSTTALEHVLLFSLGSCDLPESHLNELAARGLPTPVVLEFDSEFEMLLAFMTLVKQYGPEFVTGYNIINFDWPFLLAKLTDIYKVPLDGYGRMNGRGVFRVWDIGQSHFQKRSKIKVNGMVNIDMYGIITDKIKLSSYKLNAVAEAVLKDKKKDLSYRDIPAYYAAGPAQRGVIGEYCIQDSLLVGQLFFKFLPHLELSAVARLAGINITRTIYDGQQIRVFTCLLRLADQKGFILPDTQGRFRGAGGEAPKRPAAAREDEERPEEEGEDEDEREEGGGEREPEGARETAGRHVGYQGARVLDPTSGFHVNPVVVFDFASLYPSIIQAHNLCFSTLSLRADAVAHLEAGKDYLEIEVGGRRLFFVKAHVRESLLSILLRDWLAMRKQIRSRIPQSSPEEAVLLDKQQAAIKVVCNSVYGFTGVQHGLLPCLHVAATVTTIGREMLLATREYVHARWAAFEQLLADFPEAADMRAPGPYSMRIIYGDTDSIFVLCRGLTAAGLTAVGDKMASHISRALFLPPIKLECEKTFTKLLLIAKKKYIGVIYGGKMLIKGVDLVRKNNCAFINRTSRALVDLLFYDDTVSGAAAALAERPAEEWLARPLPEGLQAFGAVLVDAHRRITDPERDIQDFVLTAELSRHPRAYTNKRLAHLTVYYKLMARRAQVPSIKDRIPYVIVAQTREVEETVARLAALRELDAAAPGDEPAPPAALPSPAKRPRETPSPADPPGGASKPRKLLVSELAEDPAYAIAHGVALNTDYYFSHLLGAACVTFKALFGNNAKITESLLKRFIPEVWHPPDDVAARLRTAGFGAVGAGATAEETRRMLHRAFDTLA

As to GCTCTGTTCCGGTTTG (ssDNA, 2',3'-dideoxyG at 3' end, position 16 (printed D*)) [DNA16ddss], the binding result in data set [1] is “binds”. For the molecule GCTCTGTTCCGGTTTG (ssDNA, acyclovir monophosphate (acyclic G) at 3' end, position 16 (printed A*)) [DNA16ACVss], in data set [1], the binding result is recorded as “binds”.

B1: DNA16ACV (dsDNA)
DNA 1: GCTCTGTTCCGGTTTG
DNA 2: CATGATTAGATGAAACACAAACCGGAACAGAGC
modifications: acyclovir monophosphate (acyclic G) at 3' end of primer, position 16 (printed A*)
For B1, the binding result in data set [2] is reported as “binds”.

B2: DNA16GCV (dsDNA)
DNA 1: GCTCTGTTCCGGTTTG
DNA 2: CATGATTAGATGAAACACAAACCGGAACAGAGC
modifications: ganciclovir monophosphate (acyclic G) at 3' end of primer, position 16 (printed G*)
As to B2, the binding result in data set [2] is recorded as “binds”.

B3: DNA16dd (dsDNA)
DNA 1: GCTCTGTTCCGGTTTG
DNA 2: CATGATTAGATGAAACACAAACCGGAACAGAGC
modifications: 2',3'-dideoxyG at 3' end of primer, position 16 (printed D*)
For B3, the binding result in data set [2] is recorded as “binds”.
